No end group written: not given here.
How the values were obtained:
Assay in all cases: Kinase Profiling Assay
Assay type in all cases: biochemical
Details in all cases: peptide 100 μM
CDK6/cyclinD3(h) = CDK6/cyclinD3(h) (Homo sapiens, UniProt Q00534)
Procedure, shortened: (§1)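 Duplicate wells; [radiolabeled] ATP phosphate onto cationic substrate; filter capture (negatively charged membrane); scintillation count; % of 100% activity control. Selectivity screen of MK2 peptide inhibitors, 266 human kinases.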

CaMKIIδ(h) = CaMKIIδ(h) (Homo sapiens, UniProt Q13557)
Procedure, shortened: as §1

CaMKIV(h) = target: T1, CaMKIV(h) (Homo sapiens, UniProt Q16566)
T1 sequence (Q16566 1-473): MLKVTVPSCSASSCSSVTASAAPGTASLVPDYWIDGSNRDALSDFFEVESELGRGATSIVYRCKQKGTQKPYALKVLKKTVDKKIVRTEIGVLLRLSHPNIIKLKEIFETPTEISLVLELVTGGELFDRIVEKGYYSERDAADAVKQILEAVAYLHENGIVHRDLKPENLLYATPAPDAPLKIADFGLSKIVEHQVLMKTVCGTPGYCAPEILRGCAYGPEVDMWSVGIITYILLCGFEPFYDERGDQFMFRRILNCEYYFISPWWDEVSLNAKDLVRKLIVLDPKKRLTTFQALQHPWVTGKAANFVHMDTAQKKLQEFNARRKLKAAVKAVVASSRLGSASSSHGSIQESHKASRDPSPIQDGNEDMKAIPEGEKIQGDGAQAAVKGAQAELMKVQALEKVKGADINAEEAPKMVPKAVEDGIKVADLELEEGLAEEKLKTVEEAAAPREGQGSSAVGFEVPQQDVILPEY
Procedure, shortened: as §1

Fer(h) = Fer(h) (Homo sapiens, UniProt P16591)
Procedure, shortened: as §1

GSK3α(h) = target: T2, GSK3α(h) (Homo sapiens, UniProt P49840)
T2 construct: purchased Millipore
Procedure, shortened: as §1

KDR(h) = target: T3, KDR(h) (Homo sapiens, UniProt P35968)
T3 construct: purchased Millipore
Procedure, shortened: as §1

Plk3(h) = Plk3(h) (Homo sapiens, UniProt Q9H4B4)
Procedure, shortened: as §1

Rsk1(h) = Rsk1(h) (Homo sapiens, UniProt Q15418)
Procedure, shortened: as §1

TAK1(h) = target: T4, TAK1(h) (Homo sapiens, UniProt O43318)
T4 construct: purchased Millipore
T4 sequence (O43318 1-303 limits assumed): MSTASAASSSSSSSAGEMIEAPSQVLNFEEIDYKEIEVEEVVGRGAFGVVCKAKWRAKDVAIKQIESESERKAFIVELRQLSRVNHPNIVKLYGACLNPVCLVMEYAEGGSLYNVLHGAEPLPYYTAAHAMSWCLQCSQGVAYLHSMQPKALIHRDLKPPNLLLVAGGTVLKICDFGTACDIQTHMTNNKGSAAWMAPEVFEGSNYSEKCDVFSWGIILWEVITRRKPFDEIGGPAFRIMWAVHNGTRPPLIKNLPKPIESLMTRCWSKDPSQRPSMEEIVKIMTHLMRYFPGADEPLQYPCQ
Procedure, shortened: as §1

ULK2(h) = target: T5, ULK2(h) (Homo sapiens, UniProt Q8IYT8)
T5 sequence (Q8IYT8 1-1036): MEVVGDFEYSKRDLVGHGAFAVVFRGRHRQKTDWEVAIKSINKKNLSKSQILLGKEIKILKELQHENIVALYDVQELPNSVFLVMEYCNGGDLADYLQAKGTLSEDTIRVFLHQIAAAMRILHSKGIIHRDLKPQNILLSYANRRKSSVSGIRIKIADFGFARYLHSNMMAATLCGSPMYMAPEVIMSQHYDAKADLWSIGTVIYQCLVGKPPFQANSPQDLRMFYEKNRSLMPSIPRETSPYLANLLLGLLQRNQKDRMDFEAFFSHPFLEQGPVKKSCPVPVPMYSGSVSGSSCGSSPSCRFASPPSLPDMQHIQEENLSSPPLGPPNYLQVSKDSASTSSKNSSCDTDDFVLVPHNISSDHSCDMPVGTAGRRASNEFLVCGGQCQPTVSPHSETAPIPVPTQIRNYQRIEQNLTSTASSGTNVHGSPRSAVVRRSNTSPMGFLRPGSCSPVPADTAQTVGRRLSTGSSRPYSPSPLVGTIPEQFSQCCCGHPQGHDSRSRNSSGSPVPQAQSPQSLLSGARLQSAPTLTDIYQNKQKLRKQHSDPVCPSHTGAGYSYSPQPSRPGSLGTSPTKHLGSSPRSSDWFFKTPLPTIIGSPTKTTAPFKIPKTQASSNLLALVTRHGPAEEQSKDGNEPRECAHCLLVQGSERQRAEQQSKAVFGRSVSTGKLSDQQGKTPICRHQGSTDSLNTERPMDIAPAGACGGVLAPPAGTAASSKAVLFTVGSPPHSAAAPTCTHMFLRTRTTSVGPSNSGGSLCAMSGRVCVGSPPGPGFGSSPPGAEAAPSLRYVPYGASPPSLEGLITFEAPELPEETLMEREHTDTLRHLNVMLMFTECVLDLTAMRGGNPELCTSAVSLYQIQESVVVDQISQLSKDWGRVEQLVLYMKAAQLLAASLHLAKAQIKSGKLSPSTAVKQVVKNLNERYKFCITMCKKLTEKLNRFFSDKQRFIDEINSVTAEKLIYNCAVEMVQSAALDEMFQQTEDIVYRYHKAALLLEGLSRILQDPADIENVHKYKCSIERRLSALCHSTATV
Procedure, shortened: as §1

cKit(D816H)(h) = cKit(D816H)(h) (Homo sapiens, UniProt P10721, D816H)
Procedure, shortened: as §1

Sequence of CaMKIIδ(h) (Q13557 whole entry): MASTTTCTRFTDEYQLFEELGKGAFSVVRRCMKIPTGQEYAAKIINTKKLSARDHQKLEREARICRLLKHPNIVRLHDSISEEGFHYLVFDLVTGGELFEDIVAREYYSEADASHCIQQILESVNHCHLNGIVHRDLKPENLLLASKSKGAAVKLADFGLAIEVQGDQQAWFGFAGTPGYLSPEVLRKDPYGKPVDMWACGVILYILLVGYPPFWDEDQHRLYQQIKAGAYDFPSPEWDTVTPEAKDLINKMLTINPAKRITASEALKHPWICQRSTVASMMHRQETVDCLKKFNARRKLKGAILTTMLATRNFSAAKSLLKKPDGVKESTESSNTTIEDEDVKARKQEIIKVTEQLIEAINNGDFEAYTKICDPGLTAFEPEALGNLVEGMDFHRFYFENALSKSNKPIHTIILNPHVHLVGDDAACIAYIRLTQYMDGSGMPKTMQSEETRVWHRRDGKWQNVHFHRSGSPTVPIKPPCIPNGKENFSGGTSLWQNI
T3 sequence (P35968 20-1356): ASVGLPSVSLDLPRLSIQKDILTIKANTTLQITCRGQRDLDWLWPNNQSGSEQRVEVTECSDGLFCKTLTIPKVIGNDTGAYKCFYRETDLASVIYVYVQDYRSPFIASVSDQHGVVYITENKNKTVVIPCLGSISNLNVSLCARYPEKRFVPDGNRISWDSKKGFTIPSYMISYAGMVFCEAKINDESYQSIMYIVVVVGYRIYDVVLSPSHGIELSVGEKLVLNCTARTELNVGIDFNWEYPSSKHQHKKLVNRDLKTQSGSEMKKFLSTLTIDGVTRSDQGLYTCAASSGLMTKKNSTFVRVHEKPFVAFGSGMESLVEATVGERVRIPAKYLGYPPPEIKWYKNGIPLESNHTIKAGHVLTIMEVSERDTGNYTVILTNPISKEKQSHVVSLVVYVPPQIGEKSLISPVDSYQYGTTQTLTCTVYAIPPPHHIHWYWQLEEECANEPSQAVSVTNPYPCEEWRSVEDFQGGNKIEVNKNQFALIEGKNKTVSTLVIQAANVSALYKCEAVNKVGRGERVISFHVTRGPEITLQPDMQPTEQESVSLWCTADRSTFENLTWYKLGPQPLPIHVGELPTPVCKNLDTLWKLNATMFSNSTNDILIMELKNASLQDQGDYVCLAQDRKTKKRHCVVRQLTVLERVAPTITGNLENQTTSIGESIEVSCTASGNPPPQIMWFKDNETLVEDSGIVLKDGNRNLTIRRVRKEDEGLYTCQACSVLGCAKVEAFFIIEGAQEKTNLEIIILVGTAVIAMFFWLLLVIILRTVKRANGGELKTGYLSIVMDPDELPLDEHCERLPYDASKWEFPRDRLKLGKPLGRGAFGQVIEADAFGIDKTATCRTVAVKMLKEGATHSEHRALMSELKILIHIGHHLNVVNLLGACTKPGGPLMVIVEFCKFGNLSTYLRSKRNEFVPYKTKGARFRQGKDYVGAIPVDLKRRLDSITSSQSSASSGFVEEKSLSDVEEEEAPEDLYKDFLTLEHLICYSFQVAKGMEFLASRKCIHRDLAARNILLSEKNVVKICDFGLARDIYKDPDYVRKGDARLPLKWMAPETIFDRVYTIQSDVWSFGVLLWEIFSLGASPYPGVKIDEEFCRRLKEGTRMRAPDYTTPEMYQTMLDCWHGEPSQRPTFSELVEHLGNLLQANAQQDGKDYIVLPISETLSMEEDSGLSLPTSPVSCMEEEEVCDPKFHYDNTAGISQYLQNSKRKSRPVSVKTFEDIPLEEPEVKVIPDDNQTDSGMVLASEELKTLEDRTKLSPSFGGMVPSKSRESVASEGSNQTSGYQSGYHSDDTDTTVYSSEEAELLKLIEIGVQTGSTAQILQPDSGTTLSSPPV
Sequence of Fer(h) (P16591 whole entry): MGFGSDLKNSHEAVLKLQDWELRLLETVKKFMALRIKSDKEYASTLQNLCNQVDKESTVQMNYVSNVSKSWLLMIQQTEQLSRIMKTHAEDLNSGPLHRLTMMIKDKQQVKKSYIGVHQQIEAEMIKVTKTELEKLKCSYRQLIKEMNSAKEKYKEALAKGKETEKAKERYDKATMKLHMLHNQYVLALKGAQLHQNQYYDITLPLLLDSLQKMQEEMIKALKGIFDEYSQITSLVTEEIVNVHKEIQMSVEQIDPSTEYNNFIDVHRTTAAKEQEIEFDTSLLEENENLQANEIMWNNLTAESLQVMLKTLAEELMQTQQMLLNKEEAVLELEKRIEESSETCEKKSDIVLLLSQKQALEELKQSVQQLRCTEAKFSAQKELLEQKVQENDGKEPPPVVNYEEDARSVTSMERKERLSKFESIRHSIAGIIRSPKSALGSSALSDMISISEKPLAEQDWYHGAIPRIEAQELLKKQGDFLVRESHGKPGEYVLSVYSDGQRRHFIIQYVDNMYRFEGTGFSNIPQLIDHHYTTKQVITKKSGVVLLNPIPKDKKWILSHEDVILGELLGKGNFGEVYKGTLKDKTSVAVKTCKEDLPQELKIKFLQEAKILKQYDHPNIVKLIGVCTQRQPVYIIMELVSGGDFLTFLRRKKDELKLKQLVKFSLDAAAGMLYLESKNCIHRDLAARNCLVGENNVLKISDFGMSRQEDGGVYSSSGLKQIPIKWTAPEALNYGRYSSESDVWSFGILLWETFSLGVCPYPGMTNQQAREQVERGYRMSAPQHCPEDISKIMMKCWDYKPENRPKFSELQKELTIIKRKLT
Sequence of Plk3(h) (Q9H4B4 whole entry): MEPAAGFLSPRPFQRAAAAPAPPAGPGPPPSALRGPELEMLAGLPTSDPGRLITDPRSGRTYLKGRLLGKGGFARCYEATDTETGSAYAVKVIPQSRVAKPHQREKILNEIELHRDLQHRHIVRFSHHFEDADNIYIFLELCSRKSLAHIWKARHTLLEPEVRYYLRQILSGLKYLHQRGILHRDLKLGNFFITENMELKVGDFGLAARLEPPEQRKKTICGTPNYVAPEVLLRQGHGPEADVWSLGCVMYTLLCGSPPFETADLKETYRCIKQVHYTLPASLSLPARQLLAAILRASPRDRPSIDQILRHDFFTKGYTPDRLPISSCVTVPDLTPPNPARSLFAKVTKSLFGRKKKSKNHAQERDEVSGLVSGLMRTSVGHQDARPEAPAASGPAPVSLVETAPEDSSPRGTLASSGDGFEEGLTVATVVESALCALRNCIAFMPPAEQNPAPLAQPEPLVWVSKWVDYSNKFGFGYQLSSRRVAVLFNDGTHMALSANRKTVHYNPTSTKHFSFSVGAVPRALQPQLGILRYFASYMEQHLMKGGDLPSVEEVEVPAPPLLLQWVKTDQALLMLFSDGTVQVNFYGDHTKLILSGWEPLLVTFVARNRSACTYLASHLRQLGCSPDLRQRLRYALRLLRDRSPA
Sequence of Rsk1(h) (Q15418 whole entry): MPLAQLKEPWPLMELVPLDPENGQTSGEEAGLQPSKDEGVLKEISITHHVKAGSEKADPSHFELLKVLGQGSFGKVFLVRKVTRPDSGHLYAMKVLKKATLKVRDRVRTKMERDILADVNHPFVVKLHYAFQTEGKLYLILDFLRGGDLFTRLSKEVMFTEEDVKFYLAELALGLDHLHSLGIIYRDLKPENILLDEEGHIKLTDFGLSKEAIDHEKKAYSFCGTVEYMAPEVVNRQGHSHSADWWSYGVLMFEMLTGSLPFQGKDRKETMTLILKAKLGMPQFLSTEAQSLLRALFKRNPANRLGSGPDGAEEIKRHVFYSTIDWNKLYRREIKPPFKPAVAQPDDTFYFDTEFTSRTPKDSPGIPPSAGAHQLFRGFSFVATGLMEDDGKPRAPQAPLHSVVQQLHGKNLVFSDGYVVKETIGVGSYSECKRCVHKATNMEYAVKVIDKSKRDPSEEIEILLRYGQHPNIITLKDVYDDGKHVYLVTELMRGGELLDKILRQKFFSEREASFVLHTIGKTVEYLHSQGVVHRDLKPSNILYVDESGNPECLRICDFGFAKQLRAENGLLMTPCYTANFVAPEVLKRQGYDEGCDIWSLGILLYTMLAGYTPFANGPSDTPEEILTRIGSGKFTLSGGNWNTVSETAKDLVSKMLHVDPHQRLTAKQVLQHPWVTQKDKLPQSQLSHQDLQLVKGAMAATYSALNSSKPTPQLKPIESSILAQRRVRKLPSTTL
T2 sequence (P49840 whole entry): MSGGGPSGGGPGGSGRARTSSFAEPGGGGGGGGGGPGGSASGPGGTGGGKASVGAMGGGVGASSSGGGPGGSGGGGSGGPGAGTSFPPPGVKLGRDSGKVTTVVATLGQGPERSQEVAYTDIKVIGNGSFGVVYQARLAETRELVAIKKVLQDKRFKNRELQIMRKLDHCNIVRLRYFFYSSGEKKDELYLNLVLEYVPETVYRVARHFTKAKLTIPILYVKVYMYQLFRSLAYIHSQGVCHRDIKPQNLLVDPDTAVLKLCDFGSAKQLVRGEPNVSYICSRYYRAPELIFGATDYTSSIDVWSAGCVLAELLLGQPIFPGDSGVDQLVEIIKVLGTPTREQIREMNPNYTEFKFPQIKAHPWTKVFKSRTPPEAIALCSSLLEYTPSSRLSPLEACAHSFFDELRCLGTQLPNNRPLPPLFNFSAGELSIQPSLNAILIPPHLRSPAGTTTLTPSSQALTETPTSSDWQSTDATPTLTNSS

Sequence: FAKLAARLYRKALARQLGVAA [MMI-0300]
- % activity (CDK6/cyclinD3(h)): 86%
- % activity (CaMKIIδ(h)): 1%
- % activity (CaMKIV(h)): 17%
- % activity (Fer(h)): 130%
- % activity (GSK3α(h)): 157%
- % activity (KDR(h)): 101%
- % activity (Plk3(h)): 127%
- % activity (Rsk1(h)): 46%
- % activity (TAK1(h)): 122%
- % activity (ULK2(h)): 122%
- % activity (cKit(D816H)(h)): 126%

Sequence: HRRIKAWLKKIKALARQLGVAA (Mammal) [MMI-0500]
- % activity (CDK6/cyclinD3(h)): 23%
- % activity (CaMKIIδ(h)): 1%
- % activity (CaMKIV(h)): -1%
- % activity (Fer(h)): 196%
- % activity (GSK3α(h)): 175%
- % activity (KDR(h)): 15%
- % activity (Plk3(h)): 122%
- % activity (Rsk1(h)): 34%
- % activity (ULK2(h)): 124%
- % activity (cKit(D816H)(h)): 194%

Sequence: KAFAKLAARLYRKALARQLGVAA [MMI-0400]
- % activity (CDK6/cyclinD3(h)): 85%
- % activity (CaMKIIδ(h)): 2%
- % activity (CaMKIV(h)): 18%
- % activity (Fer(h)): 108%
- % activity (GSK3α(h)): 164%
- % activity (KDR(h)): 94%
- % activity (Plk3(h)): 129%
- % activity (Rsk1(h)): 54%
- % activity (TAK1(h)): 177%
- % activity (ULK2(h)): 131%
- % activity (cKit(D816H)(h)): 143%

Sequence: YARAAARQARAKALARQLGVAA [MMI-0100]
- % activity (KDR(h)): 100%
- % activity (Rsk1(h)): 86%
- % activity (ULK2(h)): 123%
- % activity (cKit(D816H)(h)): 79%

Sequence: YARAAARQARAKALNRQLGVA (Mammal) [MMI-0200]
- % activity (CDK6/cyclinD3(h)): 100%
- % activity (CaMKIIδ(h)): 2%
- % activity (CaMKIV(h)): 71%
- % activity (Fer(h)): 101%
- % activity (KDR(h)): 110%
- % activity (TAK1(h)): 124%
- % activity (ULK2(h)): 132%

From patent US20150258192A1, “COMPOSITIONS AND METHODS FOR PREVENTING OR TREATING CHRONIC LUNG ALLOGRAFT DYSFUNCTION (CLAD) AND IDIOPATHIC PULMONARY FIBROSIS (IPF)” (priority 2014, published 2015)
